From publication PMC6347451 come the findings set out here.

The target of the experiment is native MICU1 (in the native, disulfide-connected MICU1-2 heterodimer) (human (endogenous in HEK 293)) (UniProt Q9BPX6).
Sequence of UniProt Q9BPX6 (Q9BPX6 34-476, one chain of several): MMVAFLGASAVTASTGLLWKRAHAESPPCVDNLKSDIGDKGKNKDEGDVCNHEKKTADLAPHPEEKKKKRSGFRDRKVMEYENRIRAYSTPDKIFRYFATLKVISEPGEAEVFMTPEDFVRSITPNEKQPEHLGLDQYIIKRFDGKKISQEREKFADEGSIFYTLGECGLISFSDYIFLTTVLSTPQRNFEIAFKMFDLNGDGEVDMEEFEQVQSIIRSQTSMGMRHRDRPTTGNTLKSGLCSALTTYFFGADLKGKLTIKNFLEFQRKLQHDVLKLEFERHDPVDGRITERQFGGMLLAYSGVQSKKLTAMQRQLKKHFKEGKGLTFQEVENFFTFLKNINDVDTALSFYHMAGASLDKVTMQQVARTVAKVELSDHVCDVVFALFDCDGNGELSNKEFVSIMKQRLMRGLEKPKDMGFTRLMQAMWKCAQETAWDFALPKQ

Regarding “1D4-tagged human MCU D261A (from UniProt Q8NE86 51-351) (natural protein)”, the rate of mitochondrial ^45Ca^2+ uptake in low Ca^2+ (0.5 μM), D261A MCU expressed in MCU-KO cells (gating by MICU1 lost) (pmol/min/10^6 cells) came to 34.
